Measured values published in patent publication US6566047B1, “Method for identifying neurite-growth promoting agents” (The Regents of the University of Colorado, priority 1998, dated 2003).

Experiments:
growth cone PLA2 = assay: PLA2 assay in growth cone particles (GCPs); assay type: biochemical, rat; settings: GCPs
Procedure: Growth Cone Particle (GCP) Isolation. GCPs were prepared as described by Pfenninger et al. (1983) and modified by Lohse et al., Dev. Brain Res., 96:38-96 (1996). Briefly, 18-day fetal brains were homogenized in approximately 8 volumes of 0.32 M sucrose containing 1 mM MgCl2, 2 mM TES buffer, pH 7.3, and 3 μM aprotinin. A low-speed supernatant (1,660 g×15 min) was loaded onto a discontinuous sucrose density gradient With steps of 0.83 M and 2.66 M sucrose containing MgCl2 and TES. The gradients were spun to equilibrium at 242,000 g for 40 min in a vertical rotor (Vti50, Beckman). The GCP fraction at the 0.32/0.83 M sucrose interface was collected and used for the experiments described below.
All assays were run in triplicate.

cPLA2 = assay: PLA2 activity (14C-AA release) in MAT-Lu cells; assay type: biochemical, rat; settings: dose-dependent
Procedure: MAT-Lu cells were plated at a density of 0.5×10^6 cells per flask (T-75) and grown as detailed above to approximately 25% confluency. On the day before the experiments, the serum level in the medium was dropped to 1%. Cells were fed with fresh 1% serum-medium 4 hrs prior to harvest. For harvesting, cells were rinsed with Ca^++,Mg^++-free HBSS, covered with 2 ml cold Ca^++-free modified Krebs buffer (220 mM sucrose, 50 mM NaCl, 5 mM KCl, 22 mM HEPES, 10 mM glucose. 1.2 mM NaH2PO4 and 1.2 mM MgCl2, pH 7.3), and placed on ice. Cells were scraped off, pelleted for 5 min at 200 rpm and re-suspended in a minimal volume of Krebs buffer. Aliquots were used to determine protein concentration (Biorad Assay) and phopholipase activity. To measure PLA2 activity 10-12 μg of cell protein was incubated with or without thrombin for 10 min on ice, ^14C-AA-labeled phospholipid substrate (7 μM. 40-60 mCi/mmol) was added, and the mixture was transferred to 37° for 20 min. The reaction was stopped by adding cold cliloroform/methanol (1:2 v/v). Lipid extraction followed by thin-layer chromatography (Negre-Aminou et al., J Neurochem 67:2599-2608 (1996)) isolated the reaction product (identified by co-migration with AA standard), which was then scraped off the plates and analyzed in a scintillation spectrometer (Beckman). In some experiments, especially those involving ^14C-AA-phosphatidylinositol as substrate, the diacylglycerol-containing band (identified by co-migration of standard) also was scraped and counted in order to measure phospholipase C (PLC) activity.

MAT-Lu cells = assay: Pseudopod morphometry (pseudopod length assay), MAT-Lu cells; assay type: cell-based, rat; settings: typically 15 min exposure
Procedure: Pseudopod Morphometry. To study the effects of various agents on pseudopods on a short-term basis, we measured pseudopod lengths. Cells plated in 35-mm diameter dishes at low density (1×10^4 per dish) were incubated overnight, tie medium was changed, and the experiments were run four hours later. First, cultures were shifted to serum-free medium, which was replaced one hour later by serum-free medium with or without the various agents (thrombin, AA or HETEs). Care was taken to avoid heat and light inactivation of the eicosanoids. Culture dishes were placed on a Zeiss inverted microscope equipped with a heated stage and viewed with a 16×phase contrast objective lens. Randomly selected fields of the cultures, containing generally about 20 cells each, were recorded, digitized and stored in the computer at the onset of the experiment and at different times thereafter.
In some cases, individual cells were monitored over different periods of time immediately after introduction of the reagent, either by mixing it into the medium or by applying it locally to one end of the cell. […] Cell morphology was recorded, and the captured images were analyzed with a Power Macintosh computer using NIH Image. Cell process length was measured from the center of the nucleus to the end of the process. […]

B1: BDNF: brain-derived neurotrophic factor (protein, UniProt P23560 19-247, looked up)
Neurotrophic factor BDNF …: APMKEANIRGQGGLAYPGVRTHGTLESVNGPKAGSRGLTSLADTFEHVIEELLDEDQKVRPNEENNKDADLYTSRVMLSSQVPLEPPLLFLLEEYKNYLDAANMSMRVRRHSDPARRGELSVCDSISEWVTAADKKTAVDMSGGTVTVLEKVPVSKGQLKQYFYETKCNPMGYTKEGCRGIDKRHWNSQCRTTQSYVRALTMDSKKRIGWRFIRIDTSCVCTLTIKRGR
How did the “activation of growth cone cPLA2/PLA2” value (growth cone PLA2) turn out when B1 was run?
The value was “did not significantly stimulate PLA2 activity”.

What about the “net activity (pmol/min/mg protein)” value (growth cone PLA2; Table 3c, substrate PI, BDNF 100, IGF-1 0.75, insulin 1, thrombin 200 nM, control 159 ± 6.2) of the same molecule?
Its value is 164 ± 10.6 pmol/min/mg protein.

B2: SemaIV: recombinant semaphorin IV, repellent and putative tumor suppressor (protein, UniProt Q13275 19-785, looked up)
Semaphorin-3F: SFPTQDHLPATPRVRLSFKELKATGTAHFFNFLLNTTDYRILLKDEDHDRMYVGSKDYVLSLDLHDINREPLIIHWAASPQRIEECVLSGKDVNGECGNFVRLIQPWNRTHLYVCGTGAYNPMCTYVNRGRRAQATPWTQTQAVRGRGSRATDGALRPMPTAPRQDYIFYLEPERLESGKGKCPYDPKLDTASALINEELYAGVYIDFMGTDAAIFRTLGKQTAMRTDQYNSRWLNDPSFIHAELIPDSAERNDDKLYFFFRERSAEAPQSPAVYARIGRICLNDDGGHCCLVNKWSTFLKARLVCSVPGEDGIETHFDELQDVFVQQTQDVRNPVIYAVFTSSGSVFRGSAVCVYSMADIRMVFNGPFAHKEGPNYQWMPFSGKMPYPRPGTCPGGTFTPSMKSTKDYPDEVINFMRSHPLMYQAVYPLQRRPLVVRTGAPYRLTTIAVDQVDAADGRYEVLFLGTDRGTVQKVIVLPKDDQELEELMLEEVEVFKDPAPVKTMTISSKRQQLYVASAVGVTHLSLHRCQAYGAACADCCLARDPYCAWDGQACSRYTASSKRRSRRQDVRHGNPIRQCRGFNSNANKNAVESVQYGVAGSAAFLECQPRSPQATVKWLFQRDPGDRRREIRAEDRFLRTEQGLLLRALQLSDRGLYSCTATENNFKHVVTRVQLHVLGRDAVHAALFPPLSMSAPPPPGAGPPTPPYQELAQLLAQPEVGLIHQYCQGYWRHVPPSPREAPGAPRSPEPQDQKKPRNRRHHPPDT
Which results are given for B2?
activation of growth cone cPLA2/PLA2 (growth cone PLA2): dose-dependent activation of growth cone cPLA2; increase of cPLA2-PE activity (cPLA2): several fold; effect of agent alone on pseudopod length (MAT-Lu cells): causes pseudopod retraction in MAT-Lu cells
